Results as given in patent US20150118747A1, “ELECTROSTRETCHED POLYMER MICROFIBERS FOR MICROVASCULATURE DEVELOPMENT” (The Johns Hopkins University, priority 2013, published 2015).

B1: plasmin: plasmin from human plasma (Athens Research and Technology), enzyme that degrades fibrin (protein, UniProt P00747 20-580; P00747 581-810, looked up)
Plasmin heavy chain A: EPLDDYVNTQGASLFSVTKKQLGAGSIEECAAKCEEDEEFTCRAFQYHSKEQQCVIMAENRKSSIIIRMRDVVLFEKKVYLSECKTGNGKNYRGTMSKTKNGITCQKWSSTSPHRPRFSPATHPSEGLEENYCRNPDNDPQGPWCYTTDPEKRYDYCDILECEEECMHCSGENYDGKISKTMSGLECQAWDSQSPHAHGYIPSKFPNKNLKKNYCRNPDRELRPWCFTTDPNKRWELCDIPRCTTPPPSSGPTYQCLKGTGENYRGNVAVTVSGHTCQHWSAQTPHTHNRTPENFPCKNLDENYCRNPDGKRAPWCHTTNSQVRWEYCKIPSCDSSPVSTEQLAPTAPPELTPVVQDCYHGDGQSYRGTSSTTTTGKKCQSWSSMTPHRHQKTPENYPNAGLTMNYCRNPDADKGPWCFTTDPSVRWEYCNLKKCSGTEASVVAPPPVVLLPDVETPSEEDCMFGNGKGYRGKRATTVTGTPCQDWAAQEPHRHSIFTPETNPRAGLEKNYCRNPDGDVGGPWCYTTNPRKLYDYCDVPQCAAPSFDCGKPQVEPKKCPGR
Plasmin light chain B: VVGGCVAHPHSWPWQVSLRTRFGMHFCGGTLISPEWVLTAAHCLEKSPRPSSYKVILGAHQEVNLEPHVQEIEVSRLFLEPTRKDIALLKLSSPAVITDKVIPACLPSPNYVVADRTECFITGWGETQGTFGAGLLKEAQLPVIENKVCNRYEFLNGRVQSTELCAGHLAGGTDSCQGDSGGPLVCFEKDKYILQGVTSWGLGCARPNKPGVYVRVSRFVTWIEGVMRNN
modifications: plasmin
notes: plasmin from human plasma (Athens Research and Technology), enzyme that degrades fibrin

How the values were obtained:
ECFCs [1] = experiment: Actin and microtubule disruption studies, ECFCs on fibrin microfibers; type: cell-based, Human; details: for actin and microtubule organization, respectively / wrapping organization of the deposited ECM molecules compared to control cultures: ECFCs seeded on nanopatterned fibrin microfibers; for average angle of ECM orientation or variance of all angles, vs no drug: drug added 24 h after ECFC seeding on fibrin microfibers, 24 and 48 hrs of treatment
Description: The cell areas and perimeters were measured by fitting an ellipse to each cell using the LSM 510 software. Cytoskeletal alignment angle was calculated by measuring the angle between the long axis of each ellipse and the longitudinal axis of the microfiber, found by drawing a line at the edges of the microfiber in its image projection. ECM angle of orientation was measured using the LSM 510 software by drawing a line following the ECM deposition and finding the angle between the line and the longitudinal axis of the microfiber. Graphs were plotted with 5-95% confidence intervals. Unpaired two-tailed Welch-corrected t-tests were performed where appropriate (GraphPad Prism® 5.01, GraphPad Software, San Diego, Calif.). Significance levels were determined between samples examined and were set at *p<0.05, **p<0.01, and ***p<0.001.
Cytochalasin D or nocodazole were dissolved in DMSO (Table 1). ECFCs were cultured on Petri dishes (control) or fibrin microfibers in ECFC media with 50 ng/mL of VEGF (Pierce, Rockford, Ill., USA) supplemented with either […] cytochalasin D or […] nocodazole, from either day 0 or day 1 after seeding. F-actin or a-tubulin organization and ECM deposition was analyzed after 1, 2, or 3 days of treatment. Final concentration of DMSO in cell culture medium was kept at 0.1% (v/v). Controls were treated with DMSO alone at the same concentration.

fibrin microfibers = experiment: Plasmin treatment: degradation of fibrin microfibers without cells; type: biochemical; details: serum-free media
Description: (§1) Fibrin microfibers with or without cells were treated with 15, 1, 0.25, and 0.1 CU/mL plasmin from human plasma (Athens Research and Technology, Athens, Ga.) in DMEM (Life Technologies, Grand Island, N.Y.) for 1, 6, 12, and 24 hrs respectively in a humidified incubator at 37° C. in a 5% CO2 atmosphere. Samples were imaged immediately after treatment.
The fibrin microfiber core was degraded after endothelial cell (EC) layer formation while maintaining both cellular viability and intact ECM organization. Fibrin microfibers without cells were treated with different concentrations of plasmin.

ECFCs [2] = experiment: Live/Dead assay of ECFCs after plasmin treatment; type: cell-based; details: for cell viability: confluent ECFCs, data not shown; for live cells: confluent ECFCs in 2D, serum-free
Description: as §1
ECFCs cultured in 2D and treated with plasmin were incubated with 2 μM calcein AM and 4 μM ethidium homodimer (Invitrogen) in PBS for 30 min at 37° C. and 5% CO2. Samples were imaged immediately after and the number of live and dead cells was counted using ImageJ (NIH, Bethesda, Md.).

Molecule	actin and microtubule organization, respectively (ECFCs [1])	wrapping organization of the deposited ECM molecules compared to control cultures (ECFCs [1])	average angle of ECM orientation or variance of all angles, vs no drug (ECFCs [1])	time in which plasmin degraded the microfibers (fibrin microfibers; 0.1 CU/mL plasmin) [h]	time in which plasmin degraded the microfibers (fibrin microfibers; 0.25 CU/mL plasmin) [h]	time in which plasmin degraded the microfibers (fibrin microfibers; 1 CU/mL plasmin) [h]	time in which plasmin degraded the microfibers (fibrin microfibers; 15 CU/mL plasmin)	cell viability (ECFCs [2]; 1 hr treatment (15 CU/mL plasmin))	cell viability (ECFCs [2]; 6 hr treatment (1 CU/mL plasmin))	live cells (ECFCs [2]; 12 hr treatment (0.25 CU/mL plasmin)) [%]	live cells (ECFCs [2]; 24 hr treatment (0.1 CU/mL plasmin)) [%]
C=C1[C@@H](C)[C@H]2[C@H](Cc3ccccc3)NC(=O)[C@]23[C@H](OC(C)=O)/C=C/[C@@](C)(O)C(=O)[C@@H](C)C/C=C/[C@H]3[C@@H]1O [Cytochalasin D]	effectively altered	did not alter	No difference	–	–	–	–	–	–	–	–
COC(=O)Nc1nc2ccc(C(=O)c3cccs3)cc2[nH]1 [nocodazole]	effectively altered	did not alter	no difference	–	–	–	–	–	–	–	–
B1	–	–	–	~24	~12	~6	about 1 hrs	poor cell viability	poor cell viability	80.6±4.3	65.2±1.8
